This is an account of results in patent publication US20120252730A1, “PLATELET AGGREGATION INHIBITORS” (UNIVERSITY OF CHICAGO, priority 2009, published 2012).

maleimide monolayer = not defined here

B1: Ac-GRGDSC (SEQ ID NO: 28), immobilized on a monolayer array (peptide)
peptide: Ac-GRGDSC(maleimide monolayer)-NH2
modifications: not fully specified; printed as Ac-GRGDSC; reading uncertain
notes: also called 0.5% Ac-GRGDSC
B2: Ac-GAGDSC (SEQ ID NO: 30), immobilized on a monolayer array (peptide)
peptide: Ac-GAGDSC(maleimide monolayer)-NH2
modifications: not fully specified; printed as Ac-GAGDSC; reading uncertain
notes: also called 0.5% Ac-GAGDSC; Ac-GXGDSC with X = Ala
B3: Ac-GXGDSC (SEQ ID NO: 26) with X = P, immobilized on a monolayer array (peptide)
peptide: Ac-GPGDSC(maleimide monolayer)-NH2
modifications: not fully specified; printed as Ac-GXGDSC; reading uncertain
notes: Member of the Ac-GXGDSC library
B4: Ac-GXGDSC (SEQ ID NO: 26) with X = M, immobilized on a monolayer array (peptide)
peptide: Ac-GMGDSC(maleimide monolayer)-NH2
modifications: not fully specified; printed as Ac-GXGDSC; reading uncertain
notes: as for B3
B5: Ac-GVGDSC (SEQ ID NO: 32), immobilized on a monolayer array (peptide)
peptide: Ac-GVGDSC(maleimide monolayer)-NH2
modifications: not fully specified; printed as Ac-GVGDSC; reading uncertain
notes: also called 0.5% Ac-GVGDSC; Ac-GXGDSC with X = Val
B6: Ac-GXGDSC (SEQ ID NO: 26) with X = T, immobilized on a monolayer array (peptide)
peptide: Ac-GTGDSC(maleimide monolayer)-NH2
modifications: not fully specified; printed as Ac-GXGDSC; reading uncertain
notes: as for B3
B7: Ac-GXGDSC (SEQ ID NO: 26) with X = H, immobilized on a monolayer array (peptide)
peptide: Ac-GHGDSC(maleimide monolayer)-NH2
modifications: not fully specified; printed as Ac-GXGDSC; reading uncertain
notes: as for B3
B8: Ac-GLGDSC (SEQ ID NO: 34), immobilized on a monolayer array (peptide)
peptide: Ac-GLGDSC(maleimide monolayer)-NH2
modifications: not fully specified; printed as Ac-GLGDSC; reading uncertain
notes: also called 0.5% Ac-GLGDSC; Ac-GXGDSC with X = Leu
B9: Ac-GXGDSC (SEQ ID NO: 26) with X = W, immobilized on a monolayer array (peptide)
peptide: Ac-GWGDSC(maleimide monolayer)-NH2
modifications: reading uncertain; also: printed as Ac-GXGDSC
notes: as for B3
B10: Ac-GXGDSC (SEQ ID NO: 26) with X = S, immobilized on a monolayer array (peptide)
peptide: Ac-GSGDSC(maleimide monolayer)-NH2
modifications: not fully specified; printed as Ac-GXGDSC; reading uncertain
notes: as for B3
B11: Ac-GXGDSC (SEQ ID NO: 26) with X = D, immobilized on a monolayer array (peptide)
peptide: Ac-GDGDSC(maleimide monolayer)-NH2
modifications: not fully specified; printed as Ac-GXGDSC; reading uncertain
notes: as for B3
B12: Ac-GXGDSC (SEQ ID NO: 26) with X = Q, immobilized on a monolayer array (peptide)
peptide: Ac-GQGDSC(maleimide monolayer)-NH2
modifications: not fully specified; printed as Ac-GXGDSC; reading uncertain
notes: as for B3
B13: Ac-GKGDSC (SEQ ID NO: 31), immobilized on a monolayer array (peptide)
peptide: Ac-GKGDSC(maleimide monolayer)-NH2
modifications: not fully specified; printed as Ac-GKGDSC; reading uncertain
notes: also called 0.5% Ac-GKGDSC; Ac-GXGDSC with X = Lys
B14: Ac-GGGDSC (SEQ ID NO: 29), immobilized on a monolayer array (peptide)
peptide: Ac-GGGDSC(maleimide monolayer)-NH2
modifications: not fully specified; printed as Ac-GGGDSC; reading uncertain
notes: also called 0.5% Ac-GGGDSC; Ac-GXGDSC with X = Gly
B15: Ac-GXGDSC (SEQ ID NO: 26) with X = F, immobilized on a monolayer array (peptide)
peptide: Ac-GFGDSC(maleimide monolayer)-NH2
modifications: not fully specified; printed as Ac-GXGDSC; reading uncertain
notes: as for B3
B16: Ac-GIGDSC (SEQ ID NO: 33), immobilized on a monolayer array (peptide)
peptide: Ac-GIGDSC(maleimide monolayer)-NH2
modifications: not fully specified; printed as Ac-GIGDSC; reading uncertain
notes: also called 0.5% Ac-GIGDSC; Ac-GXGDSC with X = Ile
B17: Ac-GXGDSC (SEQ ID NO: 26) with X = Y, immobilized on a monolayer array (peptide)
peptide: Ac-GYGDSC(maleimide monolayer)-NH2
modifications: reading uncertain; also: printed as Ac-GXGDSC
notes: as for B3

In the assay the target is T1, human αIIbβ3 integrin on transfected CHO K1 cells (human, UniProt P08514 32-1039; P05106 27-788).
T1 construct: whole, on cells; CHO K1 cells transfected with human αIIb and β3 cDNA; about 30% of the cells expressed the receptor; also called platelet receptor; platelet integrin
Kind of assay: Ac-GXGDSC peptide array, adhesion of αIIbβ3 CHO K1 cells. The method, then: After 15-minute of incubation, cells (200,000/mL) were added to substrates in 24-well culture plates. After 2 hour incubation at 37° C. and 5% CO₂, media was exchanged for F-12K medium supplemented with 10% FBS, 1× penicillin/streptomycin and cRGDFG (SEQ ID NO: 12) (300 μM). After 2 hours, the substrates were washed gently with warm PBS, and adherent cells were immediately fixed with 4% formaldehyde for 30 minutes, visualized with a 20× objective of a Zeiss Axiovert 200 inverted microscope, and photographed. For cell adhesion assays mediated by Ac-GXGDSC (SEQ ID NO: 26), αIIbβ3 CHO K1 cells were incubated on a 5×4 circle (1 mm diameter) array for 1 hour with serum-free F-12K medium supplemented with cRGDFG (SEQ ID NO: 12) (300 μM) and 1× penicillin/streptomycin, followed by media exchange to F-12K medium supplemented with 10% FBS, 1× penicillin/streptomycin and cRGDFG (SEQ ID NO: 12) (300 μM. The substrates were washed with warm PBS, and adherent cells were immediately fixed and permeabilized with 4% formaldehyde and 0.5% Triton-X for 30 minutes. Fixed cells were stained with DAPI, visualized and photographed with a 20× objective as described. The number of adherent cells per field of view was counted using Image J software. Cells were counted in at least three fields for each circle, and each experiment was repeated 3 times. The degree of adhesion is reported as a percentage of cells that adhere relative to control experiments with the peptide Ac-GRGDSC (SEQ ID NO: 28).
To further assay the binding of peptide ligands to the […] integrin for XGD peptide ligands, an array was used to assess the adhesion of cells to peptides having the arginine residue substituted with each amino acid other than cysteine (e.g., A, D, E, F, G, H, I, K, L, M, N, P, Q, R, S, T, V, W, and Y). The library of Ac-GXGDSC (SEQ ID NO: 26) peptides was synthesized and immobilized in an array with each peptide occupying a 1 mm diameter region of the monolayer (FIG. 61). A suspension of αIIbβ3 CHO K1 cells was applied to the entire array and cells were allowed to attach to regions presenting the various peptides. The substrates were then rinsed and stained with DAPI, and the cells were counted to determine the relative efficiency of cell attachment to peptides in the library.
On to B1, for which the binding result is recorded as “binds”. In the case of B2, the binding result was “binds”.

With B3, the binding result is “no binding”. Then B4, with “no binding”; and B5, with “binds”; and B6, with “no binding”. Then B7, with “no binding”.

On to B8, for which the binding result is recorded as “binds”. Regarding B9, the binding result is “no binding”.

Consider B10, for which the binding result is on record as “no binding”.

In the case of B11, the binding result is recorded as “no binding”. In the case of B12 it was “no binding”. Then B13, with “binds”; and B14, with “binds”. For the molecule B15, the binding result is “no binding”. On to B16, for which the binding result is “binds”. As to B17, the binding result is “no binding”.
